The values that follow come from patent EP4714971A1 (Shanghai Hansoh Biomedical Co., Ltd., dated 2024).

Like-named read-outs stand apart in the source and are kept apart here.

Experiment [1] has as its target T1, human SEZ6 expressed on stably transfected CHO-K1 cells (human, UniProt Q53EL9 20-994).
T1 construct: also called CHO-SEZ6; hSEZ6
T1 sequence: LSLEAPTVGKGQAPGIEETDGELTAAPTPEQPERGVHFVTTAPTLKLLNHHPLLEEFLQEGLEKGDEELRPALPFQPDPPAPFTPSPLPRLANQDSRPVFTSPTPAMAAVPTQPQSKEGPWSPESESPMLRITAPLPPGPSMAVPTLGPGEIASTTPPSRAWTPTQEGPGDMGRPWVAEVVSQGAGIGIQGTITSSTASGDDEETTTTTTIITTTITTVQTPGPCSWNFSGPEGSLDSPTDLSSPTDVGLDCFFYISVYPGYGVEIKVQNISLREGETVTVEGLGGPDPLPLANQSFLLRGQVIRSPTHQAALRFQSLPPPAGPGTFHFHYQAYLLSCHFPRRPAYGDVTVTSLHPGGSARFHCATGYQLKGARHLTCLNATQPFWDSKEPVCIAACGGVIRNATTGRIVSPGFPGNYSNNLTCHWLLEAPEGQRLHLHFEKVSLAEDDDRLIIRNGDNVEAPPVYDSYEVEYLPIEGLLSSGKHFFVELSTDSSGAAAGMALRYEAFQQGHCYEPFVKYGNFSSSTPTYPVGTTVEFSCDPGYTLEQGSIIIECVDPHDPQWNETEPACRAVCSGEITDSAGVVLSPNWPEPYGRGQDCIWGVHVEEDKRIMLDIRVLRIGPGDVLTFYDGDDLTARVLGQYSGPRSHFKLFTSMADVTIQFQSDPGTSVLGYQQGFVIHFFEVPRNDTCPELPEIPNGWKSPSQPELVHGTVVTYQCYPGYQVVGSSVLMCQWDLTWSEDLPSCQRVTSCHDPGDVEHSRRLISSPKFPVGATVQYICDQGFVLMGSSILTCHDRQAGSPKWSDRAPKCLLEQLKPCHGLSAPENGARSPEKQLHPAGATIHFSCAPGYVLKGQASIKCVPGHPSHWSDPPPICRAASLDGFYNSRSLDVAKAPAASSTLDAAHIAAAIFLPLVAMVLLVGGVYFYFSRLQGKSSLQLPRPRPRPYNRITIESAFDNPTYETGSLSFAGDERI
The experiment is described as follows: flow cytometry on CHO-K1 cells expressing human SEZ6.

In experiment [2] the target is T2, cynomolgus monkey SEZ6 expressed on stably transfected CHO-K1 cells (cynomolgus monkey, UniProt Q53EL9 20-994 (human entry)).
T2 construct: also called CHO-cynoSEZ6; monkey SEZ6 on the cell membrane
T2 chain: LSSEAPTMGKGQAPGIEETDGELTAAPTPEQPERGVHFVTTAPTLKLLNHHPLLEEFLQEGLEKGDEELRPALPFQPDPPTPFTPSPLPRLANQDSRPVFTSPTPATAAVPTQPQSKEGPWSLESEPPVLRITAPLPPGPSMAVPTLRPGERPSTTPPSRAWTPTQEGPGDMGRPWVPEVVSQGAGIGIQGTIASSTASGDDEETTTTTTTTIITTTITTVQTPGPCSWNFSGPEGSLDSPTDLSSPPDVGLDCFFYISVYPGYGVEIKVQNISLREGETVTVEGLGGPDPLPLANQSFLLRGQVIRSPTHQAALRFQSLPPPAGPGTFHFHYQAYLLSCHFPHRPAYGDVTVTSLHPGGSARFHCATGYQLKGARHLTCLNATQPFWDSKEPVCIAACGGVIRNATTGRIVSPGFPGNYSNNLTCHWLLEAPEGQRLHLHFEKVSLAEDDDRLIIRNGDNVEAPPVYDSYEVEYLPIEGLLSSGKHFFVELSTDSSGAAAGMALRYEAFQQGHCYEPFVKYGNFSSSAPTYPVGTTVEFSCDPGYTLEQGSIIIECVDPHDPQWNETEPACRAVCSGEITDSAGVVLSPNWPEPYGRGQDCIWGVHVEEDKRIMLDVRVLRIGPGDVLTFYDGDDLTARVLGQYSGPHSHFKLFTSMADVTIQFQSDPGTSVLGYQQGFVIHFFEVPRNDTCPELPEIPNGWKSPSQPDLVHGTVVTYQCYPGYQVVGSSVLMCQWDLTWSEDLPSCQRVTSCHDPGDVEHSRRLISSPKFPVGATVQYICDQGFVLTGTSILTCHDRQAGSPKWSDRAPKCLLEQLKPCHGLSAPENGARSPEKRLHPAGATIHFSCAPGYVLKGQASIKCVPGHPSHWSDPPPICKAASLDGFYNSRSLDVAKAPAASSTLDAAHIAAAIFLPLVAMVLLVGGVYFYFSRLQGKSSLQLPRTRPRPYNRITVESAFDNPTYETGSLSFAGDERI
Description: flow cytometry on CHO-K1 cells expressing cynomolgus monkey SEZ6. A general note: Flow cytometry measures light scatter and fluorescence of single cells or particles in a stream.

Experiment [3] deals with T1, human SEZ6 expressed on stably …. Description: flow cytometry on CHO-K1 cells expressing human SEZ6. The source holds these as a separate data set.

B1: cAb3014 (antibody, V domains shown)
VH: QVQLQQPGAELVKPGASVKLSCKASGYTFSIYWMHWVKQRPGQGLEWIGMIHPNSGSTNYNEKFKSKATLTVDKSSSTAYMQLSSLTSEDSAVYYCARGGNYVAMDYWGQGTSVTVSS
VL: QIVLTQSPAIMSASLGERVTMTCTASSSVSSSYLHWYQQKPGSSPKLWIYSTSNLASGVPARFSGSGSGTSYSLTISSMEAEDAATYYCHQYHRSLTFGSGTKLEIK
A word on the EC50: it is the concentration needed to bring the measured effect to its halfway point. Turning to B1, the EC50 in experiment [1] was 0.85 nM; in experiment [2], 0.65 nM. Further, the MFImax in experiment [1] came out at 3030; in experiment [2], 13400.

B2: cAb3034 (antibody, V domains shown)
VH: QVQLQQSGAELARPGASVKMSCKASGYTFTSYTMHWVKQRPGQGLEWIGYINPRSDYTKYNQKVKDKATLTADKSSSTAYMQLSSLTSEDSAVYYCARGGLGLDYWGQGTTLTVSS
VL: DIQMTQSPSSLSASLGERVSLTCRASQEISGYLSWLQQTPDGTIKRLIYAASTLHSGVPKRFSGSRSGSDYSLTISSLESEDFAGYYCLQYASYPYTFGGGTKLEIK
As for B2, in experiment [1], the EC50 stood at 0.13 nM and the MFImax was 10100. In experiment [2], this molecule yielded a half-maximal effective concentration (EC50) of 0.37 nM and an MFImax of 17300.

B3: cAb3046 (antibody, V domains shown)
VH: QVQLQQSGAELARPGASVKMSCKASGYTFTSYTMHWVKQRPGQGLEWIGYINPSSDYTKYNQKFKGKATMTADKSSSTAYMQLSSLTSEDSAVYYCGRGLVPFAYWGQGTLVTVSA
VL: DIQMTQSPSSLSASLGERVSLTCRASQEISGYLIWLQQKPDGTIKRLIYAASTLDSGVPKRVSGSRSGSDYSLTISSLESEDFADYYCLQYASYPLTFGGGTKLELK
In experiment [1], B3 returned an EC50 of 0.06 nM and an MFImax of 5180. In experiment [2], this molecule gave a concentration for a half-maximal effect (EC50) of 0.48 nM and an MFImax of 16200.

B4: PR3132 (antibody, human IgG1, kappa, V domains shown)
VH: EVQLVQSGAEVKKPGASVKISCKASGYTFTDYYINWMRQAPGQGLEWIGWIFPGSDNPYYNEMFKDRVTVTVDKSTSTVYMELSSLRSEDTAVYFCARGRYYGLYTMDYWGQGTLVTVSS
VL: DIQMTQSPSSLSASVGDRVTITCRASQDIRNYLNWYQQKPGKAPKFLIYYTSRLHSGVPSRFSGSGSGTDFTLTISSLQPEDFATYYCQQGNTLPWTFGGGTKVEIKR
notes: Humanized, human IgG1, kappa; also called humanized antibody of cAb3056
Turning to B4, in experiment [3], a half-maximal effect (EC50) was put at 1.72 nM and the MFImax stood at 1210.

B5: PR3121 (antibody, human IgG1, kappa, V domains shown)
VH: EVQLVQSGAEVKKPGSSVKVSCKASGYTFSIYWMHWVRQAPGQGLEWIGMIHPNSGSTNYNEKFKSRATLTVDKSTSTAYMELSSLRSEDTAVYYCARGGNYVAMDYWGQGTLVTVSS
VL: DIQMTQSPSSLSASVGDRVTITCTASSSVSSSYLHWYQQKPGKAPKLLIYSTSNLASGVPSRFSGSGSGTDFTLTISSLQPEDFATYYCHQYHRSLTFGGGTKVEIKR
notes: Humanized, human IgG1, kappa; also called humanized antibody of cAb3014
Regarding B5, in experiment [3], the 50% effective concentration (EC50) is 0.45 nM and the MFImax was found to be 1020.

B6: PR3123 (antibody, human IgG1, kappa, V domains shown)
VH: EVQLVQSGAEVKKPGSSVKVSCKASGYTFSIYWMHWVRQAPGQGLEWIGMIHPNSGSTNYNEKFKSRATLTVDKSTSTAYMELSSLRSEDTAVYYCARGGNYVAMDYWGQGTLVTVSS
VL: DIQLTQSPSSLSASVGDRVTMTCTASSSVSSSYLHWYQQKPGKSPKLWIYSTSNLASGVPSRFSGSGSGTDYTLTISSLQPEDFATYYCHQYHRSLTFGGGTKVEIKR
notes: Humanized, human IgG1, kappa; Only the order of listing separates it from PR3121; also called humanized antibody of cAb3014
On to B6, for which, in experiment [3], a half-maximal response (EC50) required 0.56 nM and the MFImax was found to be 966.

B7: cAb3031 (antibody, V domains shown)
VH: DVQLQESGPGLVKPSQSLSLTCSVTGQSITSGYFWNWIRQLPGNKLEWMGHIRYDGNNNYNPSLKNRVSITRDTSKNQFFLKLNSVTTEDTATYYCARWLLRYYAMDSWGQGTSVTVSS
VL: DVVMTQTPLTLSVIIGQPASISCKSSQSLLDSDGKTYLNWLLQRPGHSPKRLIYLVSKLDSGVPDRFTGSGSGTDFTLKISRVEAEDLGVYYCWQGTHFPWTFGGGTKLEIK
In experiment [1], B7 yielded a 50% effective concentration (EC50) of 0.42 nM and an MFImax of 5180. In experiment [2], the concentration for a half-maximal effect (EC50) is 0.54 nM and the MFImax was found to be 15200.

B8: cAb3006 (antibody, V domains shown)
VH: QVQLQQSGAELARPGASVTLSCKASGYTFTDYEMHWVKETPVDGLEWIGGIDPETDNTVYNQKFKVKAILTEDKSSRIAYMELRSLTSEDSAVYYCTRGDWYFDVWGTGTTVTVSS
VL: DIVMSQSPSSQAVSVGEKVTMSCKSSQSLLNSRTRENYLAWYQQKAGQSPKLLIYWASTRDSGVPDRFTGSGSGTDFTLTINSVQAEDLAVYYCKQSYNLFTFGSGTKLEIK
For B8, the EC50 in experiment [1] turned out to be 0.35 nM; in experiment [2], 0.41 nM. In addition, the MFImax is 4830 in experiment [1] and 15000 in experiment [2].

B9: cAb3009 (antibody, V domains shown)
VH: QVQLQQSGAELVRPGASVTLSCKASGYTFTDYEMHWVRQTPVHGLEWIGGIDPESDNTVYNQKFKGKVTLTEDKSSSTAYMEFRSLTSEDSAVYYCTRGDWYFDVWGTGTTVTVSS
VL: DIVMSQSPSSQAVSVGEKVTMTCKSSQSLLNSRTRENYLAWYQQKPGQSPKLLIYWASTRESGVPDRFTGSGSGADFTLTISSVQAEDLAVYYCGQSYNLFTFGSGTKLEIK
In experiment [1], B9 came in with an EC50 of 0.81 nM and an MFImax of 5420. In experiment [2], this molecule returned a concentration giving a half-maximal response (EC50) of 0.43 nM and an MFImax of 15600.

B10: cAb3005 (antibody, V domains shown)
VH: QVQLQQSGAELARPGASVTLSCKASGYKFTDYEMHWVKETPVNGLEWIGGIDPETENTVYNQKFKVKAILTEDKSSRTAYMELRSLTSEDSAVYYCTRGDWYFDVWGTGTTVTVSS
VL: DIVMSQSPSSQAVSVGEKVTMSCKSSQSLLNSRTRENYLAWYQQKAGQSPKLLIYWASTRDSGVPDRFTGSGSGTAFTLTINSVQAEDLAVYYCKQSYNLFTFGSGTKLEIK
For the molecule B10, in experiment [1], it took 0.52 nM to reach a half-maximal effect (EC50) and the MFImax stood at 4920. Further, in experiment [2], the EC50 amounted to 0.41 nM and the MFImax was 14700.

B11: cAb3003 (antibody, V domains shown)
VH: QVQLQQSGAELVRPGASVTLSCKASGYTFTGYEMHWVKQTPVHGLEWIGGIDPETDNTVYNQKFKGKAILTEDKSSSTAYMELRRLTSEDSAVYYCTRGDWYFDIWGTGTTVTVSS
VL: DIVLSQSPSSQAVSVGEKVTMSCKSSQSLLNSRTRENYLAWYQQKPGQSPKLLIYWASTRESGVPDRFTGSGSGTDFTLTISSVQAEDLAVYYCQQSYNLFTFGSGTILEIK
As to B11, the EC50 in experiment [1] worked out at 0.68 nM; in experiment [2], 0.42 nM. Also, the MFImax in experiment [1] was determined as 5110; in experiment [2], 14300.

B12: cAb3056 (antibody, V domains shown)
VH: QVQLQQSGPELMKPGASVKISCKASGYTFTDYYINWMKQRPGQGLEWIGWIFPGSDNPYYNEMFKDKATVSVDKSSSAVFMLLTSLTSEDSAVYFCARGRYYGLYTMDYWGQGTSVTVSS
VL: DIQMTQTTSSLSASLGDRVTISCRASQDIRNYLNWYQQKADGTVKFLIYYTSRLHSGVPSRFSGSGSGTDFSLTISNLEQEDVATYFCQQGNTLPWTFGGGTKVEIK
For B12, the figures for the EC50 in experiment [1] and in experiment [2] were 0.42 nM and 0.95 nM, respectively. Besides, the MFImax in experiment [1] turned out to be 6560; in experiment [2], 14600.
